# IntAct's records for PubMed 17571076
# B1: Mitochondrial protein import protein ZIM17 (Saccharomyces cerevisiae), P42844 (parent)
# chain: MIPRTRTLLQSKIPITRYFARCWAPRVRYNVCRTLPAAALHTNIIAHNEVKKDDKKVHLGSFKVDKPKMMIAFTCKKCNTRSSHTMSKQAYEKGTVLISCPHCKVRHLIADHLKIFHDHHVTVEQLMKANGEQVSQDVGDLEFEDIPDSLKDVLGKYAKNNSENASQLPHPSQK
# Variants of: B1
# Conditions: with hsp77_yeasx SSC1, P0CS91
# Chain of hsp77_yeasx SSC1, P0CS91 (P0CS91 whole entry): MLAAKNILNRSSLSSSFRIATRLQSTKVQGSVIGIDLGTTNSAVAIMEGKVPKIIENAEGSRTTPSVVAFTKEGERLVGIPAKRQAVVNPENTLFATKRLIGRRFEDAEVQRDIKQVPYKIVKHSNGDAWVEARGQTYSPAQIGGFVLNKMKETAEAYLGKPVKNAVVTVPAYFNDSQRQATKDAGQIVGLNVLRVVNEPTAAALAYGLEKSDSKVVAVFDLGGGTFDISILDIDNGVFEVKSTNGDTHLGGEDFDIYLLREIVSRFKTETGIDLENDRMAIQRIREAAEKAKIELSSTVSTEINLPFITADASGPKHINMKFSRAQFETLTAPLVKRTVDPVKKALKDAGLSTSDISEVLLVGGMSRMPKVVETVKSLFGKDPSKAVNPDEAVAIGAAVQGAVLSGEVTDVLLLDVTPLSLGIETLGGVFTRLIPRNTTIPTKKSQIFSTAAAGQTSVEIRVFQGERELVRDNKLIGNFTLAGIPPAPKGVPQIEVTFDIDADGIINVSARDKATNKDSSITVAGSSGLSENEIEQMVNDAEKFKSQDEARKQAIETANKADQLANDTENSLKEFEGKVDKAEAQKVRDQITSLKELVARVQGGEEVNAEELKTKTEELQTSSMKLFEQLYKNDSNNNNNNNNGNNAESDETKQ
row,Variant,effect of a mutation on the interaction
1,R106A,disrupting interaction
2,H107A,disrupting interaction

# Variants of: B1
# Conditions: with hsp77_yeasx SSC1, P0CS91
# Remark: another data set of the same source
row,Variant,effect of a mutation on the interaction
1,D111A,disrupting interaction
